Experimental data published in US20260209384A1 (Stanford University, published 2026).

Target: T1, recombinant human GPC2 (R&D Systems) (human, UniProt Q8N158 24-554, limits assumed, labelled with Dylight488 or Dylight650 in the flow cytometry assays; unlabelled in the ELISA)
T1 construct: extracellular domain; also called hGPC2; human Glypican-2
T1 sequence (looked up): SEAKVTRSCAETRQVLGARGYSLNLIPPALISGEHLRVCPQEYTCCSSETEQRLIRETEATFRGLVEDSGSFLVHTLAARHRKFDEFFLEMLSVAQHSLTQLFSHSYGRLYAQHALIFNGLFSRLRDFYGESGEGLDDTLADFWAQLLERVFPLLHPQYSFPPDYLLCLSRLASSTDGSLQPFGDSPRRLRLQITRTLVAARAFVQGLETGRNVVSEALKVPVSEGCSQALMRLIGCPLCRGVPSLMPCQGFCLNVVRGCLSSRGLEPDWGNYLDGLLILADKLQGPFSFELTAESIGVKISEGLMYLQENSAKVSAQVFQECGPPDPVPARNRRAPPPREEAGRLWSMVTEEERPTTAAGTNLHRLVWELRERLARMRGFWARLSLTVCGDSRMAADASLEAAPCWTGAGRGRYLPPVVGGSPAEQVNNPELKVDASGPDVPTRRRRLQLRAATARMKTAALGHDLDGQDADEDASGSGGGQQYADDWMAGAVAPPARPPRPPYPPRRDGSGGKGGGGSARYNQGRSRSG
Assay: panning of a human naive Fab phage library against recombinant human GPC2
Description: A naïve human Fab phage display library constructed from peripheral blood B cells of 50 healthy donors, was used for selection of Fabs against purified recombinant GPC2 ectodomain (R&D Systems) as previously described. The isolated Fabs were expressed, purified and tested for binding to the GPC2 ectodomain through ELISA.

B1: GPC2.27 (Fab from a human naive Fab phage library) (Fab, V domains shown)
VH: EVQLVESGPGLVKPSETLSLTCAVSGYSISSGYYWGWIRQPPGKGLEWIGSIYHSGSTYYNPSLKSRVTISVDTSKNQFSLKLSSVTAADTAVYYCASLPSRGGFDYWGQGTLVTVSS
VL: EIVMTQSPATLSASVGDRVTIACRASQTISRYLNWYQQKPGKAPKLLIYAASSLQSGVSSRFSGSGSGTEFTLTISSLQPEDFATYFCQQTYSPPITFGQGTRLEIKR
notes: Human Fab selected by phage display
B1: binds.
